We go through 14 molecules from patent US20180251524A1 (REGENTS OF THE UNIVERSITY OF MINNESOTA, published 2018).

Residue numbers refer to the chain shown, from its start. Names and notes keep the numbering of the source.

Test [1] has as its target T1, epithelial cell adhesion molecule (EpCAM) on EpCAM-expressing MCF-7 cells (human, UniProt P16422 24-314).
T1 construct: whole, on cells; also called cellular EpCAM; EpCAM+ MCF-7 cells
T1 sequence (looked up): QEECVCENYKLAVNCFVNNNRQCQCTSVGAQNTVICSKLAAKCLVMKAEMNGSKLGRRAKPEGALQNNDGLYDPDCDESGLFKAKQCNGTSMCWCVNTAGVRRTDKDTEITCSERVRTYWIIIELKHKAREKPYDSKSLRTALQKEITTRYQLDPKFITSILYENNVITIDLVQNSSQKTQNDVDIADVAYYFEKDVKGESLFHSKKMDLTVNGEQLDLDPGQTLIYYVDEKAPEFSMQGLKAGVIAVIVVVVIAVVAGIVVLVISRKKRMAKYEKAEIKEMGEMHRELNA
In words: flow cytometry titration on EpCAM+ MCF-7 cells. On the technique in general: Flow cytometry measures light scatter and fluorescence of single cells or particles in a stream.

Test [2] has as its target T1, epithelial cell adhesion molecule …. The test can be described thus: flow cytometry on EpCAM+ MCF-7 cells.
Test [3] shares this target. The test can be described thus: flow cytometry titration of unmodified parent ligand on MCF-7 cells.
The target is the same in test [4]. In words: flow cytometry titration of biotinylated ligand on EpCAM+ MCF-7 cells.
The target is the same in test [5]. The test can be described thus: flow cytometry titration of soluble clone on MCF-7 cells.
The target is the same in test [6]. In words: flow cytometry, multiple affinity titrations on EpCAM+ MCF-7 cells.
For test [7] the target is unchanged. The test can be described thus: flow cytometry titration on EpCAM-expressing MCF-7 cells, anti-MYC detection; apparent (multivalent) Kd. Here is the method:
The apparent affinity and selectivity of the Fn3 and mSA/Fn3 CSANs was determined by flow cytometry, as previously described (Stern, et al., ACS Combinatorial Science 2017, 19 (5), 315-323). Briefly, EpCAM-expressing MCF-7 cells and EpCAM-negative U-87 MG cells were cultured to approximately 80% confluency, detached, and counted, as described above. Aliquots of 5×10⁴ cells were washed with PBSA (PBS with 0.1% w/v bovine serum albumin) and labeled with varying concentrations of Fn3 or mSA/Fn3 CSANs for ≥90 min at 4° C. Cells were then pelleted (500 g, 5 min, 4° C.) and resuspended in 50 μL anti-MYC (clone 9E10) Alexa Fluor 647 conjugate (Thermo Fisher Scientific, Cat: MA1-980-A647; 5 μg/mL in PBSA). After incubating at 4° C. for ≥30 min in the dark, cells were again pelleted and washed thrice with 1 mL cold PBSA before the fluorescence was analyzed on an LSR II flow cytometer (BD Biosciences).

B1: mixed, reduced valency CSANs of 1DD-FnC5-v4 and 1DD-FnNT-v4 subunits (designed binder)
chain 1: MGEQKLISEEDLGGSGGGSGGGISLIAALAVDRVIGMENAMPWNLPADLAWFKRNTLNKPVIMGRHTWESIGRPLPGRKNIILSSQPGTDDRVTWVKSVDEAIAAAGDVPEIMVIGGGRVYEQFLPKAQKLYLTHIDAEVEGDTHFPDYEPDDWESVFSEFHDADAQNSHSYSFEILERRGGISLIAALAVDRVIGMENAMPWNLPADLAWFKRNTLNKPVIMGRHTWESIGRPLPGRKNIILSSQPGTDDRVTWVKSVDEAIAAAGDVPEIMVIGGGRVYEQFLPKAQKLYLTHIDAEVEGDTHFPDYEPDDWESVFSEFHDADAQNSHSYSFEILERRGELGGSGGGGSGGGGSGGGGSGGGGSGGGGSGGGGSGGGGSGGGGSGGASSSDSPRNLEVTNATPNSLTISWDNSNYASYYRITYGETGGNSPSQELTVPGSTYNATISGLKPGQDYIITVYAVTYRDNYSYSNLISINYRSEIDKPSQGSHHHHHH
chain 2: MGEQKLISEEDLGGSGGGSGGGISLIAALAVDRVIGMENAMPWNLPADLAWFKRNTLNKPVIMGRHTWESIGRPLPGRKNIILSSQPGTDDRVTWVKSVDEAIAAAGDVPEIMVIGGGRVYEQFLPKAQKLYLTHIDAEVEGDTHFPDYEPDDWESVFSEFHDADAQNSHSYSFEILERRGGISLIAALAVDRVIGMENAMPWNLPADLAWFKRNTLNKPVIMGRHTWESIGRPLPGRKNIILSSQPGTDDRVTWVKSVDEAIAAAGDVPEIMVIGGGRVYEQFLPKAQKLYLTHIDAEVEGDTHFPDYEPDDWESVFSEFHDADAQNSHSYSFEILERRGELGGSGGGGSGGGGSGGGGSGGGGSGGGGSGGGGSGGGGSGGGGSGGASSSDSPRNLEVTNATPNSLTISWDAPAVTVRYYRITYGETGGNSPSQEFTVPGSKSTATISGLKPGQDYTITVYAVTGRDGSPASSKPISINYRTEIDKPSQGSHHHHHH
notes: Nanoring co-assembled with the chemical dimerizer bis-methotrexate
Turning to B1, the binding result in test [1] was “binds”.

B2: CSANs displaying only the non-binding control domain (1DD-FnNT-v4) (designed binder)
chain: B1 chain 2
notes: Nanoring oligomerized with bis-methotrexate; control; also called 1DD-FnNT-v4 CSANs
Regarding B2, the binding result in test [2] is given as “no binding”.

B3: mixed, reduced valency CSANs of 1DD-FnB22-v4 and 1DD-FnNT-v4 subunits (designed binder)
chain 1: B1 chain 1 with N414D, S415Y, N416T, Y417S, L437F, S442N, I448V, K452R, L475P, S482T
chain 2: B1 chain 2
notes: as for B1
Take B3: the binding result in test [1] was “binds”.

B4: EpCAM-binding fibronectin clone C8 (parent ligand) (designed binder)
chain: SSDSPRNLEVTNATPNSLTISWDYPNSASYYRITYSETGGNSPSQEFTVPGNTYNATISGLKPGQDYIITVYAVTYRDNYSYSNLISINYRTEIDKPSQHHHHHH
notes: also called C08
As to B4, in test [3], the Kd was 11 nM.

B5: non-specifically biotinylated fibronectin clone C8 (designed binder)
chain: B4 chain
modifications: non-specific biotinylation of primary amines (N-terminus, lysines) with EZ-Link Sulfo-NHS-Biotin
notes: also called biotin-C08; biotin-C8
In the case of B5, the Kd in test [4] is 5.7 nM.

B6: EpCAM-binding fibronectin (Fn3) clone C5 (designed binder)
chain: B4 chain with Y24N, P25S, S27Y, S36G, F47L, N52S, T92S
notes: Soluble domain made in E. coli; also called Fn 3.4.5; Fn C5
Molecule B6 registered a Kd in test [5] of 17 nM.

B7: NODAGA-Fn-C5 (Fn_C5_G65C conjugated to maleimide-NODAGA) (designed binder)
chain: B4 chain with Y24N, P25S, S27Y, S36G, F47L, N52S, G64C, T92S
modifications: maleimide-NODAGA on the engineered cysteine (G65C, position as in SEQ ID NO: 1)
notes: Single NODAGA per domain by MALDI-MS; also called Fn 3.4.5 G65C NODAGA conjugate
B7: the Kd in test [6] was 14 nM.

B8: EpCAM-binding fibronectin clone C10 (parent ligand) (designed binder)
chain: B4 chain with Y24D, N26D, S27F, S36G, N41S, N55S, Q65R, Y67H, I68T, L85P
B8: in test [3], the Kd amounted to 25 nM.

B9: EpCAM-binding fibronectin clone B22 (parent ligand) (designed binder)
chain: B4 chain with Y24D, P25Y, N26T, S36G, I58V, K62R, L85P
On to B9, for which, in test [3], the Kd is 1100 nM.

B10: non-specifically biotinylated fibronectin clone B22 (designed binder)
chain: B4 chain with Y24D, P25Y, N26T, S36G, I58V, K62R, L85P
modifications: non-specific biotinylation of primary amines (N-terminus, lysines) with EZ-Link Sulfo-NHS-Biotin
notes: also called biotin-B22
In the case of B10, the Kd in test [4] is 1700 nM.

B11: non-specifically biotinylated fibronectin clone C10 (designed binder)
chain: B4 chain with Y24D, N26D, S27F, S36G, N41S, N55S, Q65R, Y67H, I68T, L85P
modifications: non-specific biotinylation of primary amines (N-terminus, lysines) with EZ-Link Sulfo-NHS-Biotin
notes: also called biotin-C10
As to B11, in test [4], the Kd was 9.7 nM.

B12: NODAGA-Fn-NT (Fn_NT_G65C non-targeted control conjugated to maleimide-NODAGA) (designed binder)
chain: SSDSPRNLEVTNATPNSLTISWDAPAVTVRYYRITYGETGGNSPSQEFTVPGSKSTATISGLKPCQDYTITVYAVTGRDGSPASSKPISINYRTEIDKPSQHHHHHH
modifications: maleimide-NODAGA on the engineered cysteine (G65C)
notes: Non-targeted scaffold with wild-type loops, G65C and RGD changed to RDG
As to B12, the binding result in test [1] was “no binding”.

B13: Fn3 CSANs (DHFR^2-Fn3 fusion proteins with clone C5, oligomerized with bisMTX) (designed binder)
chain: MGEQKLISEEDLGGSGGGSGGGISLIAALAVDRVIGMENAMPWNLPADLAWFKRNTLNKPVIMGRHTWESIGRPLPGRKNIILSSQPGTDDRVTWVKSVDEAIAAAGDVPEIMVIGGGRVYEQFLPKAQKLYLTHIDAEVEGDTHFPDYEPDDWESVFSEFHDADAQNSHSYSFEILERRGGISLIAALAVDRVIGMENAMPWNLPADLAWFKRNTLNKPVIMGRHTWESIGRPLPGRKNIILSSQPGTDDRVTWVKSVDEAIAAAGDVPEIMVIGGGRVYEQFLPKAQKLYLTHIDAEVEGDTHFPDYEPDDWESVFSEFHDADAQNSHSYSFEILERRGELGGGGSGGGGSGGGGSASSSDSPRNLEVTNATPNSLTISWDNSNYASYYRITYGETGGNSPSQELTVPGSTYNATISGLKPGQDYIITVYAVTYRDNYSYSNLISINYRSEIDKPSQGSHHHHHH
notes: Multivalent nanoring; also called EpCAM-targeted Fn3 CSANs; monospecific Fn3 CSANs
Turning to B13, in test [7], the Kd was 21 nM.

B14: bispecific mSA/Fn3 CSANs (co-assembled mSA-DHFR^2 and DHFR^2-Fn3 subunits) (designed binder)
chain 1: B13 chain
chain 2: MAEAGITGTWYNQSGSTFTVTAGADGNLTGQYENRAQGTGCQNSPYTLTGRYNGTKLEWRVEWNNSTENCHSRTEWRGQYQGGAEARINTQWNLTYEGGSGPATEQGQDTFTKVKELGGSGGGSGGGSGGMISLIAALAVDRVIGMENAMPWNLPADLAWFKRNTLNKPVIMGRHTWESIGRPLPGRKNIILSSQPGTDDRVTWVKSVDEAIAAAGDVPEIMVIGGGRVYEQFLPKAQKLYLTHIDAEVEGDTHFPDYEPDDWESVFSEFHDADAQNSHSYSFEILERRGMISLIAALAVDRVIGMENAMPWNLPADLAWFKRNTLNKPVIMGRHTWESIGRPLPGRKNIILSSQPGTDDRVTWVKSVDEAIAAAGDVPEIMVIGGGRVYEQFLPKAQKLYLTHIDAEVEGDTHFPDYEPDDWESVFSEFHDADAQNSHSYSFEILERRGGSGGGSGGGSGGDYKDDDDK
notes: Stochastic mixture of the two subunits oligomerized with bisMTX; also called mSA/Fn3 bispecific CSANs
Turning to B14, the Kd in test [7] is 24 nM.
